From US20110053865A1 (published 2011)
Read-outs that look alike come from different tables or passages of the source. Values belong to the binder of their own block, whether it stands above or below them.

Legend:
124H2 [1] = assay: Biacore; R&D hIL23
4E11 = assay: Biacore; R&D hIL23
4D2 = assay: Biacore; R&D hIL23
124D11 [2] = assay: Biacore; R&D hIL23
124E5 = assay: Biacore; R&D hIL23
4A11 = assay: Biacore; R&D hIL23
12A4 = assay: Biacore; R&D hIL23
12C10 = assay: Biacore; R&D hIL23
4E3 = assay: Biacore; R&D hIL23
124E3 = assay: Biacore; R&D hIL23
124F10 = assay: Biacore; R&D hIL23
124G2 = assay: Biacore; R&D hIL23
124G4 [3] = assay: Biacore; R&D hIL23
124F9 = assay: Biacore; R&D hIL23
124F7 = assay: Biacore; R&D hIL23
124C3 = assay: Biacore; R&D hIL23
124C5 = assay: Biacore; R&D hIL23
12H2 = assay: Biacore; R&D hIL23
4E7 = assay: Biacore; R&D hIL23
12E11 = assay: Biacore; R&D hIL23
12D2 = assay: Biacore; R&D hIL23
12A11 = assay: Biacore; R&D hIL23
12G7 = assay: Biacore; R&D hIL23
124B5 [4] = assay: Biacore; R&D hIL23
124B6 = assay: Biacore; R&D hIL23
124D2 = assay: Biacore; R&D hIL23
124H1 = assay: Biacore; R&D hIL23
124D4 [5] = assay: Biacore; R&D hIL23
124H5 [6] = assay: Biacore; R&D hIL23
12D11 = assay: Biacore; R&D hIL23
12F11 = assay: Biacore; R&D hIL23
3E1 = assay: Biacore
3H5 = assay: Biacore
3G9 = assay: Biacore
3A10 = assay: Biacore
3A7 = assay: Biacore
4F3 = assay: Biacore
80C10 [7] = assay: Biacore
3C7 = assay: Biacore
3A11 = assay: Biacore
1G8 = assay: Biacore
121C1 = 84D3 = assay: Biacore
3D4 = assay: Biacore
121C1 = assay: Biacore
80C10 [8] = assay: Biacore; remark: listed apart in the source
124H2 [9] = assay: Biacore
124D11 [10] = assay: Biacore
124G4 [11] = assay: Biacore
124B5 [12] = assay: Biacore
124D4 [13] = assay: Biacore
124H5 [14] = assay: Biacore

koff (124H2 [1]): 0.000116 s⁻¹ | koff (4E11): 0.000126 s⁻¹ | koff (4D2): 0.000111 s⁻¹ | koff (124D11 [2]): 0.000259 s⁻¹ | koff (124E5): 0.000187 s⁻¹ | koff (4A11): 0.00032 s⁻¹ | koff (12A4): 0.000295 s⁻¹ | koff (12C10): 0.000289 s⁻¹ | koff (4E3): 0.000164 s⁻¹ | koff (124E3): 0.000261 s⁻¹ | koff (124F10): 0.000169 s⁻¹ | koff (124G2): 6.55e-05 s⁻¹ | koff (124G4 [3]): 0.000146 s⁻¹ | koff (124F9): 0.00031 s⁻¹ | koff (124F7): 0.000382 s⁻¹ | koff (124C3): 0.000123 s⁻¹ | koff (124C5): 0.000357 s⁻¹ | koff (12H2): 0.000126 s⁻¹ | koff (4E7): 0.000101 s⁻¹ | koff (12E11): 0.000237 s⁻¹ | koff (12D2): 0.000101 s⁻¹ | koff (12A11): 0.000134 s⁻¹ | koff (12G7): 0.000242 s⁻¹ | koff (124B5 [4]): 0.00022 s⁻¹ | koff (124B6): 0.000249 s⁻¹ | koff (124D2): 9.08e-05 s⁻¹ | koff (124H1): 0.000158 s⁻¹ | koff (124D4 [5]): 0.000348 s⁻¹ | koff (124H5 [6]): 0.000246 s⁻¹ | koff (12D11): 0.000121 s⁻¹ | koff (12F11): 0.000235 s⁻¹
B1: R&D hIL23 (ligand)
chain 1: RAVPGGSSPAWTQCQQLSQKLCTLAWSAHPLVGHMDLREEGDEETTNDVPHIQCGDGCDPQGLRDNSQFCLQRIHQGLIFYEKLLGSDIFTGEPSLLPDSPVGQLHASLLGLSQLLQPEGHHWETQQIPSLSPSQPWQRLLLRFKILRSLQAFVAVAARVFAHGAATLSP
chain 2: IWELKKDVYVVELDWYPDAPGEMVVLTCDTPEEDGITWTLDQSSEVLGSGKTLTIQVKEFGDAGQYTCHKGGEVLSHSLLLLHKKEDGIWSTDILKDQKEPKNKTFLRCEAKNYSGRFTCWWLTTISTDLTFSVKSSRGSSDPQGVTCGAATLSAERVRGDNKEYEYSVECQEDSACPAAEESLPIEVMVDAVHKLKYENYTSSFFIRDIIKPDPPKNLQLKPLKNSRQVEVSWEYPDTWSTPHSYFSLTFCVQVQGKSKREKKDRVFTDKTSATVICRKNASISVRAQDRYYSSSWSEWASVPCS

koff (3E1): 0.00956 s⁻¹ | koff (3H5): 0.00375 s⁻¹ | koff (3G9): 0.00768 s⁻¹ | koff (3A10): 0.00353 s⁻¹ | koff (3A7): 0.00588 s⁻¹ | koff (4F3): 0.00255 s⁻¹ | koff (80C10 [7]): 0.000578 s⁻¹ | koff (3C7): 0.0119 s⁻¹ | koff (3A11): 0.00636 s⁻¹ | koff (1G8): 0.000779 s⁻¹ | koff (121C1 = 84D3): 0.0371 s⁻¹ | koff (3D4): 0.00714 s⁻¹ | koff (121C1): 0.0371 s⁻¹ | koff (80C10 [8]): 0.000578 s⁻¹
B2: hIL12 (ligand)
chain 1: RNLPVATPDPGMFPCLHHSQNLLRAVSNMLQKARQTLEFYPCTSEEIDHEDITKDKTSTVEACLPLELTKNESCLNSRETSFITNGSCLASRKTSFMMALCLSSIYEDLKMYQVEFKTMNAKLLMDPKRQIFLDQNMLAVIDELMQALNFNSETVPQKSSLEEPDFYKTKIKLCILLHAFRIRAVTIDRVMSYLNAS
chain 2: B1 chain 2

koff (124H2 [9]): 0.00291 s⁻¹ | koff (124D11 [10]): 0.00744 s⁻¹ | koff (124G4 [11]): 0.00329 s⁻¹ | koff (124B5 [12]): 0.00105 s⁻¹ | koff (124D4 [13]): 0.0029 s⁻¹ | koff (124H5 [14]): 0.00304 s⁻¹
B3: R&D mIL23 (ligand)
chain 1: VPRSSSPDWAQCQQLSRNLCMLAWNAHAPAGHMNLLREEEDEETKNNVPRIQCEDGCDPQGLKDNSQFCLQRIRQGLAFYKHLLDSDIFKGEPALLPDSPMEQLHTSLLGLSQLLQPEDHPRETQQMPSLSSSQQWQRPLLRSKILRSLQAFLAIAARVFAHGAATLTEPLVPTA
chain 2: MWELEKDVYVVEVDWTPDAPGETVNLTCDTPEEDDITWTSDQRHGVIGSGKTLTITVKEFLDAGQYTCHKGGETLSHSHLLLHKKENGIWSTEILKNFKNKTFLKCEAPNYSGRFTCSWLVQRNMDLKFNIKSSSSSPDSRAVTCGMASLSAEKVTLDQRDYEKYSVSCQEDVTCPTAEETLPIELALEARQQNKYENYSTSFFIRDIIKPDPPKNLQMKPLKNSQVEVSWEYPDSWSTPHSYFSLKFFVRIQRKKEKMKETEEGCNQKGAFLVEKTSTEVQCKGGNVCVQAQDRYYNSSCSKWACVPCRVRS
